Data: article PMC8982573 (EMBO Reports, 2022)

Target: SARS-CoV-2 spike receptor-binding domain fused to Venus YFP (RBD-vYFP) (SARS-CoV-2, UniProt P0DTC2 330-526, chemically biotinylated using NHS-Biotin)
Assay: grating-coupled interferometry (GCI)
Settings: both partners purified

B1: Sybody Sb#15 (VHH)
VHH: QVQLVESGGGLVQAGGSLRLSCAASGFPVKNFEMEWYRKAPGKEREWVAAIQSGGVETYYADSVKGRFTISRDNAKNTVYLQMNSLKPEDTAVYYCFVYVGRSYIGQGTQVTVS
notes: also called Sb#y15; source: E. coli MC1061, periplasm, purified (Ni-NTA, SEC)
Kd: 14.4 nM
